Publication PMC10812501, “Repurposing Glutathione Transferases: Directed Evolution Combined with Chemical Modification for the Creation of a Semisynthetic Enzyme with High Hydroperoxidase Activity” (Antioxidants, 2023)
Substitutions are numbered along the chain they refer to. In names and notes the source's numbering stands.

B1: GmGSTU4-4 (Glycine max) (protein)
chain: MSDEVVLLDFWPSPFGMRVRIALAEKGIKYEYKEEDLRNKSPLLLQMNPVHKKIPVLIHNGKPICESLIAVQYIEEVWNDRNPLLPSDPYQRAQTRFWADYVDKKIYDLGRKIWTSKGEEKEAAKKEFIEALKLLEEQLGDKTYFGGDNLGFVDIALVPFYTWFKAYETFGTLNIESECPKFIAWAKRCLQKESVAKSLPDQQKVYEFIMDLRKKLGIE
notes: dimer; Sh14 = shuffled variant differing by four point changes (R38Q/Q46K/W114C/I183V)
B2: GmGSTU4-4 (Glycine max; I183V/Q46K/R38Q/W114C) (protein)
chain: B1 chain with R38Q, Q46K, W114C, I183V
notes: as for B1

How the values were obtained:
[1] = substrate: CC(C)(OO)c1ccccc1; test: steady-state kinetics, coupled glutathione reductase/NADPH hydroperoxidase assay; type: biochemical, Glycine max; conditions: GSH 1.0 mM fixed, sodium phosphate 50 mM pH 7.0, 1 mM EDTA
Text: steady-state kinetics, coupled glutathione reductase/NADPH hydroperoxidase assay on GmGSTU4-4

[2] = substrate: CC(C)(OO)c1ccccc1; test: as above; type: biochemical, Glycine max; conditions: Sh14 shuffled variant, GSH 1.0 mM fixed, sodium phosphate 50 mM pH 7.0, 1 mM EDTA

Protein	Km [1]	kcat [1]	Km [2]	kcat [2]
B1	454.3 ± 83.6 µM	0.178 ± 0.0167 s⁻¹		
B2			255.8 ± 46.4 µM	0.593 ± 0.0617 s⁻¹
